Measured values: US8962819B2, “Anti-C5 alpha antibodies” (Adienne S.A., priority 2002, dated 2015)

Columns and labels:
C5 [1] = biological target: T1, C5 (Homo sapiens, UniProt P01031); experiment: Haemolytic assay / TCC ELISA with EAC1-3b sheep erythrocytes and C5 depleted serum; assay type: biochemical; conditions: FIG. 1B
T1 construct: C5 alpha and beta subunits were obtained by incubating 50 μg of C5; purchased Quidel
Method: Panel A) The ELISA assay measures the amount of C5a fragment released in the supernatant after enzymatic cleavage of C5, using antibodies anti-C5 as described in example 6. […] Sheep erythrocytes sensitised with antibodies and coated until the C3b (EAC1-3b) complement step were added to the mixture of TS-A12 or TS-A12/22 and C5, and the mixture was further incubated for 30 minutes at 37° C. (panel B).
Sheep erythrocytes (SBRC: Sheep red blood cells) were sensitised with sub-agglutinating amounts of rabbit IgM (EA). […]
The obtained anti-C5 scFv fragments were further characterised for their ability to inhibit the hemolytic activity of C5 or, in other words, to block conversion of the C5 component to C5a. […] At the end of this procedure, cell lysis was measured as percentage of the control of total lysis in distilled H2O (see FIG. 1, panel B). The inhibition of C5a and TCC production by the scFv TS-A12 and TS-A12/22 was measured by means of ELISA using the monoclonal antibody 17/5 as the capture antibody and antibody G25/2 as detection antibody according to what has been described in Opperman et al., 1991, Complement Inflamm. […] The presence of TCC was measured using antibody aE11 as the capture antibody and a biotinylated anti-C5 antibody (SIGMA-ALDRICH®) followed by alkaline phosphatase-conjugated streptavidin, as described by Tedesco et al. (1997, J Exp. Med. 185:1619).

C5 [2] = biological target: T1, C5; experiment: Hemolytic assay, classical pathway (EAC1-3b sheep erythrocytes); assay type: biochemical; conditions: 600 ng scFv, increasing amounts of C5, FIG. 4A
Method: (§1) Values from spectrophotometric reading performed at 412 nm to measure inhibition of lysis of sheep erythrocytes coated with EAC1-3b, through the classical complement activation pathway (A Panel); or of rabbit erythrocytes in order to measure the alternative pathway of complement activation (B Panel). Increasing amounts of C5 were mixed with 600 ng of the scFv antibody of the invention with an unrelated scFv, or with GVBS in which the scFv of the invention were solubilised, as described in example 9. After incubation with serum lacking in C5, obtained from a patient with selective deficiency of this complement component, the percentage of hemolysis was measured compared to the 100% value obtained by lysing erythrocytes in an equal volume of distilled H2O and a blank obtained by resuspending eythrocytes in GBVS. Having assessed the characteristics of the inhibition of the classical activation pathway of factor C5 by the TS-A12/22 antibody, it was then verified whether there was inhibition also of the alternative pathway of C5 activation, and at which level. […] After incubation for 30 minutes at 37° C., the percentage of erythrocyte lysis was measured by comparison to a 100% value obtained by lysing erythrocytes with an equal volume of distilled of H2O and to a blank consisting of erythrocytes re-suspended in GBVS. […]

C5 [3] = biological target: T1, C5; experiment: Hemolytic assay, alternative pathway (rabbit erythrocytes); assay type: biochemical; conditions: 600 ng scFv, increasing amounts of C5, FIG. 4B
Method: as §1

C3 = C3 (Homo sapiens, UniProt P01024); experiment: Specificity on other complement components; assay type: binding
Method: (§2) (The specificity of TS-A12/22 antibody was evaluated also on other components of the complement cascade, as for instance C3 and C4, which are structurally similar to C5, but cross-reactivity was not found).

C4 = experiment: Specificity on other complement components; assay type: binding
Method: as §2

T1 sequence (P01031 678-1676 limits assumed): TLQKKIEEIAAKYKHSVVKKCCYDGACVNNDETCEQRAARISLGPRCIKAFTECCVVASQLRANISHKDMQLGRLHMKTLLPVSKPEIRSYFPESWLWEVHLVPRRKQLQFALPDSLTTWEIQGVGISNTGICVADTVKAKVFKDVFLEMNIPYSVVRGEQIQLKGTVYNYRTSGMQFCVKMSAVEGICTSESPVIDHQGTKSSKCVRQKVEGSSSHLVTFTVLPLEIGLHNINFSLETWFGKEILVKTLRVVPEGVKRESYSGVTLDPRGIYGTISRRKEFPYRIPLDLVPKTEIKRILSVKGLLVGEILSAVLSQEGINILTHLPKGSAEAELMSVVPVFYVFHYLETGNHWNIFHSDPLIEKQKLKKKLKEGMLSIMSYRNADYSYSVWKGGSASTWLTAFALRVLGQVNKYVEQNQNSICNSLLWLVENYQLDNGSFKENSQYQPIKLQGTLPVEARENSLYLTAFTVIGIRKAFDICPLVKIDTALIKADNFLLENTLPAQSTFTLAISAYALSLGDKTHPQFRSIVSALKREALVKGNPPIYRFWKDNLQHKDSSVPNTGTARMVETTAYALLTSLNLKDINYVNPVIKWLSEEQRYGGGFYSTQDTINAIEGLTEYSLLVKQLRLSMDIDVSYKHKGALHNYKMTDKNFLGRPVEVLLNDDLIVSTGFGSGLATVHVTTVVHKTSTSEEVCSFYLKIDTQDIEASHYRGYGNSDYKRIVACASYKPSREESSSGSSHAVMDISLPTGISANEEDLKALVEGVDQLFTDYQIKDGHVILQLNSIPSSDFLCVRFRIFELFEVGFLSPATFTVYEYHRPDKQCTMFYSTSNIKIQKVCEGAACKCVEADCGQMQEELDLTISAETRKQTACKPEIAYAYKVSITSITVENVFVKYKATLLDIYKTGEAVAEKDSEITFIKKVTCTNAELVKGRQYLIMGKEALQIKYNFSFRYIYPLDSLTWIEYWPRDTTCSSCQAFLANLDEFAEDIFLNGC
T1 sequence (P01031 19-673 partner limits assumed): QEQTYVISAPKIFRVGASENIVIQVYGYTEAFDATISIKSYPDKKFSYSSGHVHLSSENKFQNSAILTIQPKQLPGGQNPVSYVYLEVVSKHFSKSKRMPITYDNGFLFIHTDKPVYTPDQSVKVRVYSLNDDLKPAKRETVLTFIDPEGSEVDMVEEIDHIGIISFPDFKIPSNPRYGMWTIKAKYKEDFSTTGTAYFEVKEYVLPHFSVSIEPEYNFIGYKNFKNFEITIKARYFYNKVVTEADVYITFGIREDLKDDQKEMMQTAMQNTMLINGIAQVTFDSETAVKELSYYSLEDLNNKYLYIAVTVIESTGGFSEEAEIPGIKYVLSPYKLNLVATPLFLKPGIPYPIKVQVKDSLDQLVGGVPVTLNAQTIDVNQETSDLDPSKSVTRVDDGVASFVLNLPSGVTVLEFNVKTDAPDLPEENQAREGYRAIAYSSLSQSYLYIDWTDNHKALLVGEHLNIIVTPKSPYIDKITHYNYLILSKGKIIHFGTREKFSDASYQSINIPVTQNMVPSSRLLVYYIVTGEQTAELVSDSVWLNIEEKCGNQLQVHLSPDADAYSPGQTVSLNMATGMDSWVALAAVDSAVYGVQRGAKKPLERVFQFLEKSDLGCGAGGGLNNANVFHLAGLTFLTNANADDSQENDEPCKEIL
Chain of C3 (P01024 23-1663): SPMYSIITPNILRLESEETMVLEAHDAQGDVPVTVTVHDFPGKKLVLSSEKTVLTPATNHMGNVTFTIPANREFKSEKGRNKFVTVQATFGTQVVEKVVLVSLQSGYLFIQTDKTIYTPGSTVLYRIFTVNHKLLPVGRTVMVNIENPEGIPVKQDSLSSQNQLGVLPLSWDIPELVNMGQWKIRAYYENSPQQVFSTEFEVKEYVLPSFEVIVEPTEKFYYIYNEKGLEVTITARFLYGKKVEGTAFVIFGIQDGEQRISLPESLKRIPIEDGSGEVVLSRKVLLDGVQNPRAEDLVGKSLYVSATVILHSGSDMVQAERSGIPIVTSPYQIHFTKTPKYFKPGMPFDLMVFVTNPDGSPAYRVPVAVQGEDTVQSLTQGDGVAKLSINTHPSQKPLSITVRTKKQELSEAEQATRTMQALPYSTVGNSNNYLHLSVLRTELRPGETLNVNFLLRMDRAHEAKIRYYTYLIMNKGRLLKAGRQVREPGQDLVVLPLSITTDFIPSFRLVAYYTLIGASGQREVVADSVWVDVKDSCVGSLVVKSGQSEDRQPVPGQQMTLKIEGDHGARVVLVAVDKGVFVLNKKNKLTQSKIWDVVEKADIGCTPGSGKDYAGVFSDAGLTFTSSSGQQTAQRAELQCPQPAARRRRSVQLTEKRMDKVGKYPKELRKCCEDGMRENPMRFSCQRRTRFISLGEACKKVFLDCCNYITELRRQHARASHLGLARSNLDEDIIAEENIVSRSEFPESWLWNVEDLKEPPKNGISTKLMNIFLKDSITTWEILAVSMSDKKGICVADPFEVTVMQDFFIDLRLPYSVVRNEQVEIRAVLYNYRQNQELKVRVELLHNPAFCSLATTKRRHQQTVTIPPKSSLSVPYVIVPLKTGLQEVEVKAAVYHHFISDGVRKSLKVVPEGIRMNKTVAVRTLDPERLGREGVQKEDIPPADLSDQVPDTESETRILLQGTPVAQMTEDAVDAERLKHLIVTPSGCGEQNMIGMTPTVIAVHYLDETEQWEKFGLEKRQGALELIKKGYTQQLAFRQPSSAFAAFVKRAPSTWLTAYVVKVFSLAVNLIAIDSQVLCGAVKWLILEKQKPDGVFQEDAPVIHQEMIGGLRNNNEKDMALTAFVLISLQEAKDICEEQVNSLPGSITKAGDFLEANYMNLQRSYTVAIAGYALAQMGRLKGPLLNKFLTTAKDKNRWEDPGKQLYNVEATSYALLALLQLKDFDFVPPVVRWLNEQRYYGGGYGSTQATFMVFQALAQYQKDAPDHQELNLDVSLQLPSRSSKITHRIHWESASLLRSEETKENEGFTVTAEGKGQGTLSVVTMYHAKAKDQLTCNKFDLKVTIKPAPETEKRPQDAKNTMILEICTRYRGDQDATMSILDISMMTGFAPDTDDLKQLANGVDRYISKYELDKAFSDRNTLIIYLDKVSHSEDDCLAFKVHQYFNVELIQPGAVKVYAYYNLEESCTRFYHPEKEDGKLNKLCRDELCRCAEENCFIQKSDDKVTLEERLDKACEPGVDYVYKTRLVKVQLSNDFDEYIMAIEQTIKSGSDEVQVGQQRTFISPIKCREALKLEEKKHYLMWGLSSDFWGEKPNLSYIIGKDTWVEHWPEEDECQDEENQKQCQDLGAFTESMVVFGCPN

B1: TS-A12/22: anti-C5 scFv obtained from TS-A12 by VL chain shuffling; VH3/V-48 and Vλ3/V2-14; amino acid sequence SEQ ID NO:6 (protein, listed as Homo sapiens)
scFv: DIRMTQSPDSLAVSLGERATINCKSSQSVLYSSNNKNYLAWYQQKPGQPPKLLIYWASTRESGVPDRFSGSGSGTDFTLTISSLQAEDVAVYYCQQYYSTPQLTFGGRTKVDIKSGGSTITSYNVYYTKLSSSGTQVQLQQSEGGVVQPGRSLRLSCAASGFTFSSYGMNWVRQAPGKGLEWVSYISSSSSTIYYADSVKGRFTISRDNSKNTLYLQMNSLRAEDTAVYYCARGPGMDVWGQGTTVTVSS
C5 [1]
  inhibition of formation of TCC: inhibit almost completely
C5 [2]
  inhibition of erythrocyte lysis through the classical pathway: inhibits
C5 [3]
  inhibition of lysis of rabbit erythrocytes through the alternative pathway: inhibits
C3
  cross-reactivity with C3: not found
C4
  cross-reactivity with C4: not found
